± gives the standard deviation of the averaged measurements.
System: VchCAST RNA-guided transposition machinery (E. coli BL21(DE3) host, lacZ target)
Assay: relative integration efficiency (T-RL orientation) vs wild-type transposon end (log2 (normalized fold change)); transposon end mutated: left end; higher = more efficient transposition
How it was run: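 In E. coli BL21(DE3), a T7-driven effector plasmid was paired with a pUC57 mini-transposon donor containing 1549 left-end or 1849 right-end barcoded transposon variants. Cells grew on plates with 0.1 mM IPTG at 37°C for 18 h. Relative integration efficiency was derived from Illumina reads of genomic integration junctions against input plasmids, as a log-transformed output/input barcode fold change normalised to reference barcodes.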

Row | Sequence | relative integration efficiency (log2)
1 | AATGTTGTTGATGCAACCATAAAGTGATATTTATATTCTAAATGTTGATTAATTTGAATCATCATCTCAACCATATATTGATATCTCACAAAACAACCATAAGTTGATATTTTTGTGAATCGAGTATTTCAGCAAAACTACTGCAGTAAGAA | -5.04 ± 1

System: VchCAST RNA-guided transposition machinery (E. coli BL21(DE3) host, lacZ target)
Assay: relative integration efficiency (T-LR orientation) vs wild-type transposon end (log2 (normalized fold change)); transposon end mutated: left end; higher = more efficient transposition
Experimental: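 Pooled, barcoded VchCAST (Tn6677) mini-transposon donor libraries; each variable transposon-end sequence sits in a fixed pDonor mini-transposon context (10-bp barcode and cargo not included). Left- or right-end libraries were co-transformed with pEffector (TniQ-Cascade, TnsABC, lacZ crRNA, T7, 0.1 mM IPTG) into E. coli BL21(DE3) and grown 18 h at 37 C. T-LR and T-RL junction amplicons were sequenced; output/input barcode fold change was normalised to the mean of four wild-type barcodes and log2-transformed. Two biological replicates; zero-count/undetected variants carry floor values (-10 / -15), censored here. Barcode uncoupling by PCR recombination adds noise.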

Row | Sequence | relative integration efficiency (log2)
2 | AATGTTGTTGATGCAACCATAAAGTGATATTTAATAATTATTTATAATCAGCAACTTAACCACAACCATATATTGATATCTCACAAAACAACCATAAGTTGATATTTTCAAAATGTGAATCGAGTATTTCAGCAAAACTACTGCAGTAAGAA | -2.53 ± 1.4
3 | AATGTTGTTGATGCAACCATAAAGTGATATTTAATAATTATTTATAATCAGCAACTTAACCACAAAACAACCATATATTGATATACAAAACAACCATAAGTTGATATTTTTGTGAATCGAGTATTTCAGCAAAACTACTGCAGTAAGAAAGT | -0.952 ± 0.93
4 | AATGTTGTTGATGCAACCATAAAGTGATATTTAATACGGCGGGCGCCGACTACCAGGCCAACACCCCACCAACGCGCGGTCGCGAGACACCCCACCAACGCCTGGTCGCGGGGGTGTCCGATCTGATTTCAGCAAAACTACTGCAGTAAGAA | -4.75 ± 2
5 | AATGTTGTTGATGCAACCATAAAGTGATATTTAATAATTATTTATAATCAGCAACTTAACCACAAAACAACCATATATTGATATCTCACAAAACAACACGCCTGGTCGCGGGGGTGTCCGATCTGATTTCAGCAAAACTACTGCAGTAAGAA | -0.741 ± 1.6
6 | AATGTTGTTGATGCAACCATAAAGTGCGCGGGCCGCCGGCGGGCGCCGACTACCAGGCCAACACCCCACCAACGCGCGGTCGCGAGACACCCCACCAACGCCTGGTCGCGGGGGTGTCCGATCTGATTTCAGCAAAACTACTGCAGTAAGAA | < -10
7 | AATGTTGTTGATGCAACCATAAAGTGATATTTGCTAGCATTATACCTAGGACTGAGCTAGCTGTCAACAACCATATATTGATATCTCACAAAACAACCATAAGTTGATATTTTTGTGAATCGAGTATTTCAGCAAAACTACTGCAGTAAGAA | < -10
8 | AATGTTGTTGATGTAATTATCATTTTATGGTTGATAATTATTTATAATCAGCAACTTAACCACAAAACAACCATAAAATGATAATTAACAAAACAACCATAAAATGATAATTATGTGAATCGAGTATTTCAGCAAAACTACTGCAGTAAGAA | < -10
9 | AATGTTGTTGATGCAACCATACCTGTATATTTAATAATTATTTATAATCAGCAACTTAACCACAAAACAACCATAGCGGTATATCTCACAAAACAACCATACTGGTATATTTTTGTGAATCGAGTATTTCAGCAAAACTACTGCAGTAAGAA | < -10
10 | AATGTTGTTGATGCCCAACGCCCTGTCGCGGGCCGCCGGCGGGCGCCGACTACCAGGCCAACACCCCACCAACGCGCGGTCGCGAGACACCCCACCAACGCCTGGTCGCGGGGGTGTCCGATCTGATTTCAGCAAAACTACTGCAGTAAGAA | < -10
11 | AATGTTGTTGATGTAATTATCATTTTATGGTTGATAATTATTTATAATCAGCAACTTAACCACAAAATAATTATCATTTTATGGTTGACAAAACAACCATAAAATGATAATTATGTGAATCGAGTATTTCAGCAAAACTACTGCAGTAAGAA | < -10
12 | AATGTTGTTGATGCAACCATAAAGTTCGCGGGCCGCCGGCGGGCGCCGACTACCAGGCCAACACCCCACCAACGCGCGGTCGCGAGACACCCCACCAACGCCTGGTCGCGGGGGTGTCCGATCTGATTTCAGCAAAACTACTGCAGTAAGAA | < -10
13 | AATGTTGTTGATGACCAACGCCTGGTCGCGGGGATAATTATTTATAATCAGCAACTTAACCACAAAACAACCATATATTGATATCTCACAAAAACCAACGCCCTGTCGCGGGCTGTGAATCGAGTATTTCAGCAAAACTACTGCAGTAAGAA | < -10
14 | AATGTTGTTGATGACCAACGCCCTGTCGCGGGCCGCCGGCGGGCGCCGACTACCAGGCCAACACCCCACCAACGCGCGGTCGCGAGACACCCCACCAACGCCTGGTCGCGGGGGTGTCCGATCTGATTTCAGCAAAACTACTGCAGTAAGAA | < -10
15 | AATGTTGTTGATGCAACCAGCCCTTGATATTTAATAATTATTTATAATCAGCAACTTAACCACAAAACAACCAGCGCGTGATATCTCACAAAACAACCAGCCTGTGATATTTTTGTGAATCGAGTATTTCAGCAAAACTACTGCAGTAAGAA | < -10
16 | AATGTTGTTGATGCACAACGCCCTGTCGCGGGCCGCCGGCGGGCGCCGACTACCAGGCCAACACCCCACCAACGCGCGGTCGCGAGACACCCCACCAACGCCTGGTCGCGGGGGTGTCCGATCTGATTTCAGCAAAACTACTGCAGTAAGAA | < -10
17 | AATGTTGTTGATGCAACCATAAAGTGATATTTAATAATTATTCAACCATATATTGATATCTCACAAAACAACCATAAGTTGATATTTTTGTGAATCGAGTATTTCAGCAAAACTACTGCAGTAAGAAAGTTACTTCGTGGTATGGGAGGATC | -5.27 ± 0.11
18 | AATGTTGTTGATGCAACCATAAATGTCGCGGGCCGCCGGCGGGCGCCGACTACCAGGCCAACACCCCACCAACGCGCGGTCGCGAGACACCCCACCAACGCCTGGTCGCGGGGGTGTCCGATCTGATTTCAGCAAAACTACTGCAGTAAGAA | < -10
19 | AATGTTGTTGATGCAACCATAAAGTGATATTTAATAATTATTTATAATCAGCACAACCATATATTGATATCTCACAAAACAACCATAAGTTGATATTTTTGTGAATCGAGTATTTCAGCAAAACTACTGCAGTAAGAAAGTTACTTCGTGGT | -4.94 ± 0.63

— the supplement of paper PMC10201428
